From patent US20170042969A1

Target: ornithine decarboxylase (ODC) (UniProt P11926)
Test: cell-based or functional assay

ornithine decarboxylase (ODC), sequence (P11926 whole entry): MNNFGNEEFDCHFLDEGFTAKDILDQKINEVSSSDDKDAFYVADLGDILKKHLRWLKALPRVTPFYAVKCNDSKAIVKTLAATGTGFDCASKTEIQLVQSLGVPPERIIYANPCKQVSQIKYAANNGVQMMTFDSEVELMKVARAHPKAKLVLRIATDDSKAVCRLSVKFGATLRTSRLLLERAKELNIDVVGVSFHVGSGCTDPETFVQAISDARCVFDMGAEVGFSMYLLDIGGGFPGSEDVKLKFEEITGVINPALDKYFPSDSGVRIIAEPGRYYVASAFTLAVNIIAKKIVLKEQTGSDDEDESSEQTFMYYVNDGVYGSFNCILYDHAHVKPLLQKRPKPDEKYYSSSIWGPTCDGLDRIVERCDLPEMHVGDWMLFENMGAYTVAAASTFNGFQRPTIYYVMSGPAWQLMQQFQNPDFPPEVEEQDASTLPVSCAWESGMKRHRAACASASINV

- decrease in activity of purified ODC (released CO2) after 1 h with 100 µM peptide: 40%
Substance: QEP (glutamine-glutamic acid-proline tripeptide)
